Test results published in patent US20210388081A1 (Memorial Sloan Kettering, published 2021).
Substitutions are numbered along the chain they refer to.

T1: FcRL1, overexpressed on 3T3 cells (UniProt Q96LA6 17-429, limits assumed)
T1 construct: whole, on cells
T1 sequence (looked up): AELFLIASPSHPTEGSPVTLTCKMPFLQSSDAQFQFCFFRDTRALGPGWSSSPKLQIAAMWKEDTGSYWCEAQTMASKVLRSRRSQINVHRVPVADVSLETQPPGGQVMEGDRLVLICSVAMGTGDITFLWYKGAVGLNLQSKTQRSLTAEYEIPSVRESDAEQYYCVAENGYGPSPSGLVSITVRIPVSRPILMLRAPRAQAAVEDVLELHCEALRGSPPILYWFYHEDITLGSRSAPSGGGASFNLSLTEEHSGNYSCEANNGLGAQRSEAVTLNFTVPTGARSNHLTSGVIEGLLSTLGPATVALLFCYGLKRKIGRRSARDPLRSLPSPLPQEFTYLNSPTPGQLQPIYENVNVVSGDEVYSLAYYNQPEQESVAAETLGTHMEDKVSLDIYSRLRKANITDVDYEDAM

T2: FcRL2, overexpressed on 3T3 cells (UniProt Q96LA5 20-508, limits assumed)
T2 construct: whole, on cells
T2 sequence (looked up): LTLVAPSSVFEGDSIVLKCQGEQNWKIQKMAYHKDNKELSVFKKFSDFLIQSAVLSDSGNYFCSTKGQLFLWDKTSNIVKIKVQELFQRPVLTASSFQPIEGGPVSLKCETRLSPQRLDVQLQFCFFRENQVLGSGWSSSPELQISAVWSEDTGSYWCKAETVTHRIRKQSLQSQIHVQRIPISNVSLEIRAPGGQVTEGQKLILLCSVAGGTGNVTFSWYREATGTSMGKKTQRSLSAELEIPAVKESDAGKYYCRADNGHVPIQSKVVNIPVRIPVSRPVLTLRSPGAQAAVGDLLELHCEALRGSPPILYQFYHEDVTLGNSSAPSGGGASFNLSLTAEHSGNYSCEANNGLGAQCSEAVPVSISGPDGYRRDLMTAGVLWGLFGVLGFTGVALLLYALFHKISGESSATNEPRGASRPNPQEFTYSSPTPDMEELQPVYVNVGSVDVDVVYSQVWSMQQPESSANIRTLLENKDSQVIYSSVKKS

T3: FcRL6, overexpressed on 3T3 cells (UniProt Q6DN72 20-434, limits assumed)
T3 construct: whole, on cells
T3 sequence (looked up): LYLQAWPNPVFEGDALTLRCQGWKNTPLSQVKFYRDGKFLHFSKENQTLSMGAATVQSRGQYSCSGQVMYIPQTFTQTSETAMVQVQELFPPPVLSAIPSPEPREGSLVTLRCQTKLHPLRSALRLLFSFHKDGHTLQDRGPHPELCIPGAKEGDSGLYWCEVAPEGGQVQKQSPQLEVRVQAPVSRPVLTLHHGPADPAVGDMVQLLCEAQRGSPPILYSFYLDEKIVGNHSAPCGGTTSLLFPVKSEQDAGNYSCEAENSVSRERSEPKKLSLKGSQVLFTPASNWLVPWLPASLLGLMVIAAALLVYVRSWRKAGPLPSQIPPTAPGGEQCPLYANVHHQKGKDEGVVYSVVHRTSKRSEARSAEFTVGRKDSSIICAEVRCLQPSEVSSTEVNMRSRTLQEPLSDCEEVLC

T4: Fc Receptor-like 5 (FcRL5), full length, overexpressed on 3T3 or Raji cells (human, UniProt Q96RD9 16-977)
T4 construct: also called 3T3-FcRL5
T4 sequence: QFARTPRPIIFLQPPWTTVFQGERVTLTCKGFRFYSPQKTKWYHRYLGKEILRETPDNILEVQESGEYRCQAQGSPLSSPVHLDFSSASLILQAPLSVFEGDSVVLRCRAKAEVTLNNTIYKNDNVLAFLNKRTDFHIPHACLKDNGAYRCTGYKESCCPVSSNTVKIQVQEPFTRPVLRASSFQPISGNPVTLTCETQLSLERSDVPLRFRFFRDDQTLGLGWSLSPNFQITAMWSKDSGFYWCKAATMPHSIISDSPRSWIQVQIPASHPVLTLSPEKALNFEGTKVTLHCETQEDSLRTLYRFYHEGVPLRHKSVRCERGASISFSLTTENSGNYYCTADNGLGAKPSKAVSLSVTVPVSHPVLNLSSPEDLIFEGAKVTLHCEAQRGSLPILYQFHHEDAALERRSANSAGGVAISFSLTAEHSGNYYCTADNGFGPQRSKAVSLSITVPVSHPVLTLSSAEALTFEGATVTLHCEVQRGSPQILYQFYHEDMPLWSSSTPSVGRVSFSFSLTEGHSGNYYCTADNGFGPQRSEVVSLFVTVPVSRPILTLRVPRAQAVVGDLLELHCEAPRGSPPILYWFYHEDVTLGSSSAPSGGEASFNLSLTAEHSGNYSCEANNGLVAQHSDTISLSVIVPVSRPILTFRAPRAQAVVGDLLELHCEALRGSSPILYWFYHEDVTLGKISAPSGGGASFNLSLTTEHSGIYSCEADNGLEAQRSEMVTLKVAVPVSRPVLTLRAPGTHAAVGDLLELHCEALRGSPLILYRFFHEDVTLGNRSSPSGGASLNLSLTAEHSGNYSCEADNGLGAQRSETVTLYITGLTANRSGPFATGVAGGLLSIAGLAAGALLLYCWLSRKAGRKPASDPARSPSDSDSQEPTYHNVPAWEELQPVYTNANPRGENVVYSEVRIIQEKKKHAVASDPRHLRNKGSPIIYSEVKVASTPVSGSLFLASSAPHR

B1: ET200-019 (scFv)
scFv: NFMLTQPHSVSESPGKTVTISCTRSSGSIASNYVQWYQQRPGSAPTTVIYEDNQRPSGVPDRFSGSIDSSSNSASLTISGLKTEDEADYYCQSYDSSNSWVFGGGTKLTVLGSRGGGGSGGGGSGGGGSLEMAQVQLVQSGAEVKRPGSSVKVSCTASGGTFSSDAISWVRQAPGQGLEWMGGIIPMFGTANYAQKFQGRVTITADESTSTAYMELSSLRSEDTAVYYCAREGYYYPSAYLGSVLNDISSVYDEWGQGTLVTVSSTSGQAGQHHHHHHGAYPYDVPDYAS
notes: screened as phage clone; entry is VL-linker-VH-His tag-HA tag
B2: ET200-020 (scFv)
scFv: QSVVTQPPSVSAAPGQKVTISCSGSTSNIGNNDVSWYQQLPGTAPKLLIYDNNKRPSGIPDRFSGSKSGTSATLGITGLQTGDEADYYCGTWDSSVSASWVFGRGTKLTVLGSRGGGGSGGGGSGGGGSLEMAQVQLVQSGAEVKKPGASVKVSCKASGYTFTSYGISWVRQAPGQGLEWMGWISAYNGNTNYPQKLQGRVTMTTDPSTSTAYMELRSLRSDDTAVYYCARSMTSFDYWGQGTLVTVSSTSGQAGQHHHHHHGAYPYDVPDYAS
notes: as for B1
B3: ET200-021 (scFv)
scFv: QSVLTQPPSVSAAPGQKVTISCSGSNSNIGNNYVSWYQQLPGTAPKLLIYDNNKRPSGIPDRFSGSRSGTSATLGITGLQTGDEADYYCGTWNTTVTPGYVFGTGTKVTVLGSRGGGGSGGGGSGGGGSLEMAEVQLVQSGAEVKKPGASVKVSCKASGYTFTSYGISWVRQAPGQGLEWMGWISAYNGNTNYAQKLQGRVTMTTDTSTSTAYMELRSLRSDDTAMYYCARSVYDLDTWGQGTLVTVSSTSGQAGQHHHHHHGAYPYDVPDYAS
notes: as for B1
B4: ET200-022 (scFv)
scFv: QSVVTQPPSVSAAPGQKVTISCSGSSSNIGNNYVSWYQQLPGTAPKLLIYDNNKRPSGIPDRFSGSKSGTSATLGITGLQTGDEADYYCGTWDSSLGAPYVFGTGTKVTVLGSRGGGGSGGGGSGGGGSLEMAEVQLVQSWGGSEQPGRSLRLSCAASGFTFDDYAMHWVRQAPGKGLEWVSGISWNSGSIGYADSVKGRFTISRDNAKNSLYLQMNSLRAEDTAMYYCARYRQVGSAYDSWGQGTLVTVSSTSGQAGQHHHHHHGAYPYDVPDYAS
notes: as for B1
B5: ET200-023 (scFv)
scFv: LPVLTQPPSVSVAPGKTARITCGGNNIGSKSVHWYQQKPGQAPVLVVYADSDRPSGIPERFSGSNSGNTATLTISRVEAGDEADYYCQVWDSSSYHNYVFGTGTKVTVLGSRGGGGSGGGGSGGGGSLEMAEVQLVQSGAEVKKPGASVKVSCKASGYTFTSYGISWVRQAPGQGLEWMGWISAYNGNTNYAQKLQGRVTMTTDTSTSTAYMELSSLRSEDTAMYYCARYWGFGVSDRWGQGTLVTVSSTSGQAGQHHHHHHGAYPYDVPDYAS
notes: as for B1
B6: ET200-039 (scFv)
scFv: NFMLTQPHSVSESPGKTVTISCTRSSGSIASNYVQWYQQRPGSSPTTVIYEDNQRPSGVPDRFSGSIDSSSNSASLTISGLKTEDEADYYCQSYDSSNWVFGGGTKLTVLGSRGGGGSGGGGSGGGGSLEMAEVQLVQSGAEVKKPGSSVKVSCKASGGTFSSYAISWVRQAPGQGLEWMGGIIPIFGTANYAQKFQGRVTITADESTSTAYMELSSLRSEDTAVYYCARSNYYYNDYWGQGTLVTVSSTSGQAGQHHHHHHGAYPYDVPDYAS
notes: screened as phage clone; entry is VL-linker-VH-His tag-HA tag; also called ET200-39
B7: ET200-026 (scFv)
scFv: B6 scFv with R24G, S44A, S231N, Y233H
notes: as for B1
B8: ET200-035 (scFv)
scFv: B6 scFv with S44A, S97T, E133Q, S231Y, Y235F
notes: as for B1
B9: ET200-027 (scFv)
scFv: QSVLTQPPSVSGAPGQGVTIPCTGSSSNIGAGYDVHWYQQLPGTAPKLLIYGNNNRPSGVPDRFSGSRSGSSASLAITGLQAEDEADYYCQSYDSSLSDVVFGGGTKVTVLGSRGGGGSGGGGSGGGGSLEMAEVQLVQSGAEVKKPGATVKISCKVSGYTFTDYYMHWVQQAPGKGLEWMGLVDPEDGETIYAEKFQGRVTITADTSTDTAYMELSSLRSEDTAVYYCARYWSYSFDYLYMPEGNDWWGQGTLVTVSSTSGQAGQHHHHHHGAYPYDVPDYAS
notes: as for B1

Molecular target: SLAMF9 protein (UniProt Q96A28 19-236, limits assumed)
Assay: phage clone on SLAMF9 protein

SLAMF9 protein, sequence (Q96A28 19-236 limits assumed): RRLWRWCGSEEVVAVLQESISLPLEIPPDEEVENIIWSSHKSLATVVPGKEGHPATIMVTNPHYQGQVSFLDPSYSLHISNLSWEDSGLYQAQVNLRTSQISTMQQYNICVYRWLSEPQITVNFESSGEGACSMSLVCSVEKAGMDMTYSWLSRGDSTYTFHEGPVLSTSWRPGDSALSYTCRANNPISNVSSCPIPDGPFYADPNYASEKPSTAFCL

Row | Binder | binding result
1 | B1 | no binding
2 | B2 | no binding
3 | B3 | no binding
4 | B4 | no binding
5 | B5 | no binding
6 | B6 | no binding
7 | B7 | no binding
8 | B8 | no binding
9 | B9 | no binding

Molecular target: T1, FcRL1, overexpressed on 3T3 cells
Assay: phage clone on 3T3-FcRL1 cells

Row | Binder | binding result
10 | B1 | no binding
11 | B2 | no binding
12 | B3 | no binding
13 | B4 | no binding
14 | B5 | no binding
15 | B6 | no binding
16 | B7 | no binding
17 | B8 | no binding
18 | B9 | no binding

Molecular target: T2, FcRL2, overexpressed on 3T3 cells
Assay: phage clone on 3T3-FcRL2 cells

Row | Binder | binding result
19 | B1 | no binding
20 | B2 | no binding
21 | B3 | no binding
22 | B4 | no binding
23 | B5 | no binding
24 | B6 | no binding
25 | B7 | no binding
26 | B8 | no binding
27 | B9 | no binding

Molecular target: T3, FcRL6, overexpressed on 3T3 cells
Assay: phage clone on 3T3-FcRL6 cells

Row | Binder | binding result
28 | B1 | no binding
29 | B2 | no binding
30 | B3 | no binding
31 | B4 | no binding
32 | B5 | no binding
33 | B6 | no binding
34 | B7 | no binding
35 | B8 | no binding
36 | B9 | no binding

Molecular target: T4, Fc Receptor-like 5 (FcRL5), full …
Assay: phage clone screening on cells
Method: Once selected, positive scFv clones are further tested for their binding to FcRL5 (e.g., human FcRL5) on live 3T3 cell surfaces by flow cytometry. Briefly, phage clones are incubated with 3T3 cells over-expressing FcRL5. The cells are washed and then incubated with a mouse anti-M13 coat protein mAb. Cells are washed again and labeled with a PE-horse anti-mouse Ig prior to flow cytometry.
Phage′ display against FcRL5 was performed to enrich for scFv phage clones that bind to FcRL5 specifically. Screening was carried out on FcRL5 overexpressing 3T3 cells or 3T3 cells expressing FcRL1, 2, 3, 4 or 6 as a negative control (FIG. 2).

Row | Binder | binding result
37 | B1 | binds
38 | B2 | binds
39 | B3 | binds
40 | B4 | binds
41 | B5 | binds
42 | B6 | binds
43 | B7 | binds
44 | B8 | binds
45 | B9 | binds
